# In patent US20240132578A1:
# Experiments:
# Experiment in all cases: cell-based or functional assay
# [1] = target: HIV-1 Env of isolate MG RM-A-008 (pseudovirus) (HIV-1)
# [2] = target: HIV-1 Env of isolate VLGCA1 (pseudovirus) (HIV-1)
# [3] = target: HIV-1 Env of isolate MG RM-A-014 (pseudovirus) (HIV-1)
# [4] = target: HIV-1 Env of isolate MGRM-AE-002 (pseudovirus) (HIV-1)
# [5] = target: HIV-1 Env of isolate MGRM-C-025 (subtype C), on pseudovirus (HIV-1)
# [6] = target: HIV-1 Env of isolate MG RM-A-013 (pseudovirus) (HIV-1)
# [7] = target: HIV-1 Env of isolate 92UG046 (HIV-1)
# [8] = target: HIV-1 Env of isolate 92UG001 (HIV-1)
# [9] = target: HIV-1 Env of pseudovirus isolate CAAN.A2 (clade B) (HIV-1)
# [10] = target: HIV-1 Env of pseudovirus MGRM-F1-010 (HIV-1)
# [11] = target: HIV-1 Env of pseudovirus MGRM-F1-014 (HIV-1)
# [12] = target: HIV-1 envelope glycoprotein (Env) of isolate MG RM-AG-003 (HIV-1)
# [13] = target: HIV-1 envelope glycoprotein (Env) of isolate MG RM-AG-009 (HIV-1)
# [14] = target: HIV-1 Env of isolate MGRM-A-003 (pseudovirus) (HIV-1)
# HIV-1 CMU02 Env (HIV-1) = target: HIV-1 CMU02 Env (HIV-1)
# [15] = target: HIV-1 Env of isolate 94KE105 (subtype AC) (HIV-1)
# [16] = target: HIV-1 JR-CSF Env K421A (HIV-1 (isolate JR-CSF)) (UniProt P20871)
# [17] = target: HIV-1 Env of isolate MGRM-AE-002 (subtype AE) (HIV-1)
# [18] = target: HIV-1 JR-CSF Env I415A (HIV-1 (isolate JR-CSF)) (UniProt P20871)
# [19] = target: HIV-1 Env of isolate MGRM-AE-007 (subtype AE) (HIV-1)
# [20] = target: HIV-1 Env of isolate CMU02 (subtype AE) (HIV-1)
# [21] = target: HIV-1 Env of isolate MGRM-D-008 (pseudovirus) (HIV-1)
# [22] = target: HIV-1 Env of isolate MGRM-D-021 (pseudovirus) (HIV-1)
# [23] = target: HIV-1 JR-CSF Env E466A (HIV-1 (isolate JR-CSF)) (UniProt P20871)
# [24] = target: HIV-1 JR-CSF Env N411A (HIV-1 (isolate JR-CSF)) (UniProt P20871)
# [25] = target: HIV-1 Env of isolate MGRM-C-004 (HIV-1)
# [26] = target: HIV-1 Env of isolate MGRM-AG-005 (subtype AG) (HIV-1)
# [27] = target: HIV-1 Env of isolate MGRM-A-013 (subtype A) (HIV-1)
# [28] = target: HIV-1 Env of isolate MGRM-D-022 (pseudovirus) (HIV-1)
Substance,"IC50 (µg/mL), single-round pseudovirus neutralization [1] [µg/mL]","IC50 (µg/mL), single-round pseudovirus neutralization [2] [µg/mL]","IC50 (µg/mL), single-round pseudovirus neutralization [3] [µg/mL]","IC50 (µg/mL), single-round pseudovirus neutralization [4] [µg/mL]","IC50, single-round pseudovirus neutralization [5] [µg/mL]","IC50 (µg/mL), single-round pseudovirus neutralization [6] [µg/mL]","IC50 (µg/mL), pseudovirus neutralization [7] [µg/mL]","IC50 (µg/mL), pseudovirus neutralization [8] [µg/mL]","IC50, pseudovirus neutralization [9] [µg/mL]","IC50, pseudovirus neutralization [10] [µg/mL]","IC50, pseudovirus neutralization [11] [µg/mL]",IC50 [12] [µg/mL],IC50 [13] [µg/mL],further results
4980_N08 (PGT-143) (antibody),> 50,17.4,1.07,> 50,0.336,9.24,> 50,> 50,> 50,,,,,
VRC01 (antibody),0.303,0.163,0.135,0.217,2.36,0.152,12.7,1.16,0.722,0.097,0.056,0.043,> 50,
4970_K22 (PGT-144) (antibody),> 50,> 50,> 50,> 50,17.6,> 50,> 50,> 50,> 50,,,,,
PGT-143 (4980_N08) (antibody),,,,,,,,,,> 50,0.001,> 50,> 50,
5147_N06 (PGT-130) (antibody),,,,,,,,,,,,,,"IC50 (µg/mL), pseudovirus neutralization [14]: > 50 µg/mL; IC50, pseudovirus neutralization (HIV-1 CMU02 Env (HIV-1)): > 10 µg/mL; IC50, pseudovirus neutralization [15]: 0.004 µg/mL; Fold IC50 increase relative to wild-type (pseudovirus neutralization) [16]: 2.9 fold; IC50, pseudovirus neutralization [17]: 1.53 µg/mL; Fold IC50 increase relative to wild-type (pseudovirus neutralization) [18]: 0.6 fold; IC50, pseudovirus neutralization [19]: 0.083 µg/mL; IC50, pseudovirus neutralization [20]: > 50 µg/mL; IC50 (µg/mL), pseudovirus neutralization [21]: > 50 µg/mL; IC50 (µg/mL), pseudovirus neutralization [22]: 0.156 µg/mL; Fold IC50 increase relative to wild-type (pseudovirus neutralization) [23]: 1.7 fold; Fold IC50 increase relative to wild-type (pseudovirus neutralization) [24]: 0.6 fold; IC50 (µg/mL), pseudovirus neutralization [25]: 2.76 µg/mL; IC50, pseudovirus neutralization [26]: 0.54 µg/mL; IC50, pseudovirus neutralization [27]: > 50 µg/mL; IC50 (µg/mL), pseudovirus neutralization [28]: > 50 µg/mL"
PGT-144 (4970_K22) (antibody),,,,,,,,,,> 50,0.014,> 50,> 50,
4993_K13 (PGT-141) (antibody),> 50,2.07,0.628,> 50,0.247,9.86,> 50,> 50,> 50,,,,,
4995_P16 (PGT-145) (antibody),> 50,8.01,1.36,1.87,0.044,1.76,> 50,> 50,7.08,,,,,
PGT-141 (4964_G22; 4993_K13) (antibody),,,,,,,,,,> 50,0.001,> 50,> 50,
5136_H01 (PGT-131) (antibody),,,,,,,,,,,,,,"IC50 (µg/mL), pseudovirus neutralization [14]: > 50 µg/mL; IC50, pseudovirus neutralization [15]: 0.013 µg/mL; Fold IC50 increase relative to wild-type (pseudovirus neutralization) [16]: 11 fold; IC50, pseudovirus neutralization [17]: > 50 µg/mL; Fold IC50 increase relative to wild-type (pseudovirus neutralization) [18]: 0.6 fold; IC50, pseudovirus neutralization [19]: 0.026 µg/mL; IC50, pseudovirus neutralization [20]: > 50 µg/mL; IC50 (µg/mL), pseudovirus neutralization [21]: > 50 µg/mL; IC50 (µg/mL), pseudovirus neutralization [22]: 0.106 µg/mL; Fold IC50 increase relative to wild-type (pseudovirus neutralization) [23]: 1.7 fold; Fold IC50 increase relative to wild-type (pseudovirus neutralization) [24]: 0.6 fold; IC50 (µg/mL), pseudovirus neutralization [25]: 3.71 µg/mL; IC50, pseudovirus neutralization [26]: 1.04 µg/mL; IC50, pseudovirus neutralization [27]: > 50 µg/mL; IC50 (µg/mL), pseudovirus neutralization [28]: > 50 µg/mL"
PGT-145 (4995_P16) (antibody),,,,,,,,,,3.32,0.009,> 50,> 50,
PGT-142 (4995_E20) (antibody),,,,,,,,,,> 50,0.001,> 50,> 50,
5343_B08 (PGT-135) (antibody),,,,,,,,,,,,,,"IC50 (µg/mL), pseudovirus neutralization [14]: > 50 µg/mL; IC50, pseudovirus neutralization [15]: 0.063 µg/mL; Fold IC50 increase relative to wild-type (pseudovirus neutralization) [16]: 0.3 fold; IC50, pseudovirus neutralization [17]: > 50 µg/mL; Fold IC50 increase relative to wild-type (pseudovirus neutralization) [18]: 5 fold; IC50, pseudovirus neutralization [19]: > 50 µg/mL; IC50, pseudovirus neutralization [20]: > 50 µg/mL; IC50 (µg/mL), pseudovirus neutralization [21]: > 50 µg/mL; IC50 (µg/mL), pseudovirus neutralization [22]: > 50 µg/mL; Fold IC50 increase relative to wild-type (pseudovirus neutralization) [23]: 0.5 fold; Fold IC50 increase relative to wild-type (pseudovirus neutralization) [24]: 0.2 fold; IC50 (µg/mL), pseudovirus neutralization [25]: 0.046 µg/mL; IC50, pseudovirus neutralization [26]: > 50 µg/mL; IC50, pseudovirus neutralization [27]: > 50 µg/mL; IC50 (µg/mL), pseudovirus neutralization [28]: > 50 µg/mL"
4995_E20 (PGT-142) (antibody),> 50,2.75,0.367,> 50,0.183,3.77,> 50,> 50,> 50,,,,,
